This passage reports percent of nucleosomes scored (bound by antibody) and time to equilibrium of binding and dissociation results from patent US20190284603A1.

Assay [1] has as its target Recombinant unmodified nucleosomes. As to the kind of experiment: single-molecule TIRF time-lapse imaging, summed binding events.
Assay [2] deals with Mono-nucleosomes from mouse embryonic stem cells (ESCs) (mouse) (UniProt P68433). As to the kind of experiment: single-molecule TIRF time-lapse imaging, images every 15 minutes.

Take “Acetyl-Histone H3 (Lys9) (C5B11) Rabbit mAb (Alexa Fluor 647 Conjugate) #4484 (antibody)”: the percent of nucleosomes scored (bound by antibody) in assay [1] stood at 0.1%.

As to “Tri-Methyl-Histone H3 (Lys4) (C42D8) Rabbit mAb (Alexa Fluor 555 Conjugate) #11960 (antibody)”, the time to equilibrium of binding and dissociation in assay [2] was determined as 75 min.

Regarding “Tri-Methyl-Histone H3 (Lys27) (C36B11) Rabbit mAb (Alexa Fluor 647 Conjugate) #12158 (antibody)”, the time to equilibrium of binding and dissociation in assay [2] is 45 min.
